Reference: the DeepSol protein solubility set

Assay: soluble on expression in E. coli; label from the status in PepcDB or PDB records

Row | Sequence | soluble on expression in E. coli
1 | SAQDLRMSYCYAKFEGGKCSSPKSRNHSKQECCCALKGEGWGDPCELCPTEPDEAFRQICPYGSGIIVGPDDSA | soluble
2 | MAPTTVIADNNCNEESSNSFEMEIEAESAILEQIQNKMAKNLESAAYVPPTEEEQKAIDAKSVFIGNVDFNSTIEEVEEHFKGCGHIVRTTIPKDKFTKKQKNFAYIEFDDSSSIENALVMNGSLFRSRPIVVTAKRTNIPGMGHGVRGSSRGTFGRGRGAARGAPGRQQTVVVKYVYVNGPNRGGRGGRGRRFNPY | soluble
3 | AIAEALWTNKIEDPLSLMSFTVPPLRLLSAAMWQVTERRQVKHYGMLEEFVSLVTETIPELLNQHQRAQLILGLRARHLLELCRGKHQGSLKEIQPHLKRLCRPRVNKEFADEDMEESEACFLDLVRTLISNPKEKEHYFQNIFPEEYGPKFDKNLHALMEDFLLKLDRMVSVPDLSETVSWLRTCPSLLDDCIDSVSVPKDMKSLLEHHTAKGNLQDSEGNNCTFSSQSLPPLVQVVISSDHTESGEPSDLNGQDNDDEQASKTSSDGWTIKKIKLKTETEEEDNDQNWPITEAKSTGTRDGYDDGCLGEEPNQTQS | soluble
4 | MKTTPDILDQIRVHGADAYPEEGCGFLLGTVTDDGDNRVAALHRATNRRSEQRTRRYELTADDYRAADAAAQEQGLDVVGVYHSHPDHPARPSATDLEEATFPGFTYVIVSVRDGAPEALTAWALAPDRSEFHREDIVRPDPEAPLEHHHHHH | soluble
5 | HHHHHHDITFRNIRFRYKPDSPVILDNINLSIKQGEVIGIVGRSGSGKSTLTKLIQRFYIPENGQVLIDGHDLALADPNWLRRQVGVVLQDNVLLNRSIIDNISLANPGMSVEKVIYAAKLAGAHDFISELREGYNTIVGEQGAGLSGGQRQRIAIARALVNNPKILIFDEATSALDYESEHVIMRNMHKICKGRTVIIIAHRLSTVKNADRIIVMEKGKIVEQGKHKELLSEPESLYSYLYQLQSD | soluble
6 | MKIAILGAGCYRTHAAAGITNFMRACEVAKEVGKPEIALTHSSITYGAELLHLVPDVKEVIVSDPCFAEEPGLVVIDEFDPKEVMEAHLSGNPESIMPKIREVVKAKAKELPKPPKACIHLVHPEDVGLKVTSDDREAVEGADIVITWLPKGNKQPDIIKKFADAIPEGAIVTHAATIPTTKFAKIFKDLGREDLNITSYHPGCVPEMKGQVYIAEGYASEEAVNKLYEIGKIARGKAFKMPANLIGPVCDMCSAVTATVYAGLLAYRDAVTKILGAPADFAQMMADEALTQIHNLMKEKGIANMEEALDPAALLGTADSMCFGPLAEILPTALKVLEKHKVVEEEGKTKCEIMSQKE | soluble
7 | EHIKQKNSEIAELTLQNQRDADSVEYYKALVSQDEKQKVLIHDIKKHLNAIASLNEQHDSEKIAAYLTHVLGSSELKHSVRVCDNDLLNALLCRYQKICLTKKIALHIDIRSKCIDFVTYDDLSVLFGNLMDNAVESAEKTVNPFIELNVFHKENNNMTIITLIDSCRVNPIDKNGNLLPTKKPNPQFHGFGMRSIENIVKKYNGEMTFYFDDPTKTFHTIIMLRH | not soluble
8 | MGSDKIHHHHHHMSTFHPHPPTQNRLLAALPPIELDDLAPHLELVHLLPGDVLCKAGKQLSYAYFPTSSVISIHCLLENGTLSELTSVGREGMLGVSLFMGGEDTQSSATVQSAGYGYRLNAAFLLQEFNEGGMLQRLLLRYSHALVTEAAQNVICSRYHTAQQRLCRWLMSTWDRLGSQELVLTQESIASILGIRRESVTAIARRLQEAGTICYRRGRIMVNDQAALQRESCECYDIIKKEFDGVFDDVRVCEKARQNSINAANAL | not soluble
9 | MSLKTLAFDTSNKTLSLAILDDETLLADMTLNIQKKHSVSLMPAIDFLMTCTDLKPQDLERIVVAKGPGSYTGLRVAVATAKTLAYSLNIALVGISSLYALAASTCKQYPNTLVVPLIDARRQNAYVGYYRQGKSVMPQAHASLEVIIEQLVEEGQLIFVGETAPFAEKIQKKLPQAILLPTLPSAYECGLLGQSLAPENVDAFVPQYLKRVEAEENWLKDNEIKDDSHYVKRIEGHHHHHH | soluble
10 | MLLLLTFIESPIAGIPEIRKHNCLVLPHIFVCLVITKSFGRVVTSGAAVTKRAAGYFGYLAHCAADETTWYACEQFVIGHARKAVTHFIYLA | not soluble
11 | MNASSEFTLQFESHAVRVQVDEAGTPWFNANDICTAVELLNPCAALAQHVGARNVSKRKIIDTIGRTQRANYLNEPGVLTLLIGSTKEAAKRLRRWLISEALPAAAVQKAGQHSVPQHHAPSISTPFQPTEDHTMNAITPFQFESHAVRTVVDDHGEVWFVGKDVADVLGYTNHNKALGDHCKGVPKRYPLQTPGGIQEIRIISEPDMLRLIVSSKLPAAERFERWVTSEVLPTIHKTGNRPALDHSTHSANAITPFQFESKDVRIQLDEASAPWFNANDVCSILEFGNPRQAIESHVDVEDVQKLDATDNLGRTRQTNHINESGLYALIMGSTKPAAKRFKRWVTSEVLPTLRKTGTYSTPGALPTLPGPTQDRIAALLLIGQYISTVPGVKPGIAAAATLACIKSNTNLTTEEIRRALPALRDPLCMLNATQLGKQLHCSAKAVNQLLASRGLQFRNERDDWELTEAGRVWGEAIPYSRNGHSSYQILWNPTVVDSLKVAA | soluble
12 | MSLRVIDSHTAGEPTRVVLDGGPDLGSGTLAERAARLEAEHLDFCASVMLEPRGHDAIIGALLVPPSDPACAAGVIYFNNLQNLGMCGHATIGLGVTLAHLGRIRPGRHRFETPVGVVEIDLIDANTVSVVNIESYRLAKDVTVEVEGVGPVTGDVAWGGNWFFMVKNSPIALTGANIRPLTDLTLKIRTALEKAGVTGKDGAWIDHIELFGPAEDPAAQSRNFVLCPGGAYDRSPCGTGCSAKMACLAADGALAPGQDYLQESVIGSTYKISYQPGPGGGVIPTITGQAFVTSDATLIFNPADPYRSGIRLEGHHHHHH | soluble
13 | MNNWREIAVRPDESIRETLEVIDEGAVQIAIVADGHDHLQGIVTDGDIRRGILKDLDLGAPVASVMNEDPITARPQEDRQSLIDTMRARRIHQIPLVDNEGRVVGIEVLDDLLEPEARPNPVVLMAGGLGTRLRPLTDDCPKPLLEVGDKPILETILEGFIAHGFHRFYLSVNYKAGMIEDYFRDGSNWGVDISYVHEEKRLGTAGPLSLLPERPDETMIVMNGDLLTKLNFTHLLDFHREHGAVATMCVREHETQVPYGVIETDDQSMEGIEEKPTERYFVNAGIYVLEPETLGYVPENEFFDMPDLFKRLIDEGKEATVFPVREYWQDVGRKEDFHRVNGEYEEVFDTLEHHHHHH | soluble
14 | MSVNSIYTDREEIDSEFEDEDFEKEGIATVERAMENNHDLDTALLELNTLRMSMNVTYHEVRIATITALLRRVYHFIATQTLGPKDAVVKVFNQWGLLFKRQAFDEEEYIDLMNIIMEKIVEQSFDKPDLILFSALVSLYDNDIIEEDVIYKWWDNVSTDPRYDEVKKLTVKWVEWLQNADEESSSEEE | soluble
15 | MAHHHHHHMSSITGAAYSSPEYTHCIRDSRFRHNVYEPEADTFLFLDALDKDAELLRSIRPDRCVEVGCGSGAVITHLRCLLMPSVAAAATQELEAETPELCCGASGIRSAVGGPMFCAVDVNPLALEATAITWTETLLKYFRETVLAAFYERIFQSAVPTSLAAPVVLSAEGVSPPLTRVDADDPTSSALSASTFCLHRFHGDLLNALPRGNSAPALFDVVLFNPPYVPTSLKELQDAITQRDVITTAWCGGPRGRVVLDRFLRQLPSVLSRRGVCYVVLIKENNATDVVAFAQAAFREHLRCSGTETVKDEDDVLEASEVAARYTGEHLSVYRLRYVPRFQTP | not soluble
16 | MSLGLKIEEARVIVCCPGRNFVTLKIITNEGIYGLGDATLNGRELSVVSYLEDHVIPCLIGRDPHQIEDIWQFLYRGAYWRRGPITMSAIAAVDTALWDIKAKAAGLPLYQMLGGKSRTGVMVYGHANGRDIEETVEEVGRYIEIGYQAVRAQCGIPGLPSTYGVSNDKMFYEPADADLPSENIWSTSRYLDHVPKLFEKLRQVHGWDVHLLHDVHHRLTPIEAARLGQSLEPMRLFWLEDIVPAENQEGFRIIRNHTTTPLAVGEVFNTIWDCKNLIEEQLFDYIRSTVVHAGGITHLRRIADLAGLYHVKTGCHGATDLSPVCMGAALNFDLWVPNFGIQEYMRHAEITNEVFPHHYNFSNGFLHPGESPGHGVDLDEKLAAKYPYQRAYLPVNRLEDGTMWNWEGHHHHHH | not soluble
17 | MGHHHHHHSHIELVCWYMVDRDSIDDEPVDIAFIEGSVSTEEEVELVKKIRENSKIVVAVGACAVQGGVQSWTDKSLEELWRTVYGDAKVKFKPKKAEPVSKYIKVDYNIYGCPPEKRDFLYALGTFL | not soluble
